In patent publication US20180185504A1:
Blank lines part the entries; values can stand above or below the substance they belong to.

What was measured:
[1] = target: mouse PRLR construct with an HA tag on HEK293/mPRLR cells (mouse) (UniProt Q08501); experiment: FACS on HEK293/mPRLR cells
[2] = target: human prolactin (PRL) (human) (UniProt P01236); experiment: ELISA: dimeric PRLR (3.38 pM to 200 nM) on plate-coated human PRL (1 µg/mL), HRP anti-Fc-gamma detection
[3] = target: human prolactin receptor (PRLR) on cells (human) (UniProt P16471); experiment: cell-based or functional assay
Chain of human prolactin receptor (PRLR) on cells (human) (P16471 25-622 limits assumed): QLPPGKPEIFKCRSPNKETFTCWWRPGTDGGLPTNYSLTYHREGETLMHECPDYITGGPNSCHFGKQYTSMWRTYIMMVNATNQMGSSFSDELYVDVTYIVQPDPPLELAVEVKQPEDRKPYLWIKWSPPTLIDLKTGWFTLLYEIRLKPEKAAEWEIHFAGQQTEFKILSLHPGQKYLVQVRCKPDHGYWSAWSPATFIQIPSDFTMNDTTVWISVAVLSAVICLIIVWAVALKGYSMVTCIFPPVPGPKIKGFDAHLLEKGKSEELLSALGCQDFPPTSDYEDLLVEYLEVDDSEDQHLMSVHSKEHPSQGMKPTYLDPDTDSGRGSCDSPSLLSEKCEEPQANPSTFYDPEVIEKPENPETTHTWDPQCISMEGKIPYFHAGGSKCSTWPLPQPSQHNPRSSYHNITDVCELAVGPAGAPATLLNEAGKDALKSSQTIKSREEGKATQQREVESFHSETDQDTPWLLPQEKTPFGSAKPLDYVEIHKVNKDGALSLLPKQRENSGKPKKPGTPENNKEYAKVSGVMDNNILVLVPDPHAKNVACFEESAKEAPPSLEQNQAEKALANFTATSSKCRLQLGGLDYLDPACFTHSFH

Chain of human prolactin (PRL) (human) (P01236 29-227 limits assumed): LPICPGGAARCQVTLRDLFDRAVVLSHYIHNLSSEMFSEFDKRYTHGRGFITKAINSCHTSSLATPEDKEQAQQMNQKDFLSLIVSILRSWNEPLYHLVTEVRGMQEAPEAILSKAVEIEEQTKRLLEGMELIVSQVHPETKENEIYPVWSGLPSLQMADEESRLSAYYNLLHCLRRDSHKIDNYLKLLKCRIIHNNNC
Chain of mouse PRLR construct with an HA tag on HEK293/mPRLR cells (mouse) (Q08501 20-608): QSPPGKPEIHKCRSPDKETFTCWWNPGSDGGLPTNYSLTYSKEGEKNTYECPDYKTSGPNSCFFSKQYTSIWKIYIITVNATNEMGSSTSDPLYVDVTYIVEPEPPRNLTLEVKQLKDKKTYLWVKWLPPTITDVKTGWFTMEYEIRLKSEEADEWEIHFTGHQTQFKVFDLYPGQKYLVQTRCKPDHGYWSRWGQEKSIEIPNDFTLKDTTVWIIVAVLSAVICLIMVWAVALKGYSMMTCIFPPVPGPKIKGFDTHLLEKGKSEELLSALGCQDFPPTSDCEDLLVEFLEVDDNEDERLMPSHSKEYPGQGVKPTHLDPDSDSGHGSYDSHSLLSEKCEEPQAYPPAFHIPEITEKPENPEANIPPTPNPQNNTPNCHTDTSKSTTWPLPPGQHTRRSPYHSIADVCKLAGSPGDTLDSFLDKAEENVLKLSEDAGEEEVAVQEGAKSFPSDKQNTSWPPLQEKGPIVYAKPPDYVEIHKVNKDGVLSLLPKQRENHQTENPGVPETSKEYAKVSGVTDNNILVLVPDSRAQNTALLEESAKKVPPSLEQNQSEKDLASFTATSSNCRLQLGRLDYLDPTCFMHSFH

FACS Cell Binding (Fold Above Background) [1]: 1 fold
Substance: Isotype Ctrl I (antibody)

EC50 [2]: 5.7 nM
Substance: dimeric form of cynomolgus monkey (Macaca fascicularis) PRLR (Example 12 ELISA) (Fc fusion)

EC50, STAT5-luciferase reporter in HEK293/PRLR/STAT5-Luc cells [3]: 2.1 nM
Substance: human prolactin (PRL) (from UniProt P01236 29-227) (ligand)
